Experiment in all cases: two-hybrid library CCNG1;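 further: natural log of median RNA to DNA barcode read ratio; higher means stronger binding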
The target in test [1] is T1, P6A-bA.
T1 chain: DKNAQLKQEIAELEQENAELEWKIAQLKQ

The target in test [2] is T2, P7A-bA.
T2 chain: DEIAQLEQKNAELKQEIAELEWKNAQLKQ

In test [3] the target is T3, P8A-bA.
T3 chain: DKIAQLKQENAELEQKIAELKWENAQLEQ

Test [4] deals with T4, P9A-bA.
T4 chain: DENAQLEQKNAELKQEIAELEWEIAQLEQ

In test [5] the target is T5, P4A-bA.
T5 chain: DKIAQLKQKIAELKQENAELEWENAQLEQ

The target of test [6] is T6, P5A-bA.
T6 chain: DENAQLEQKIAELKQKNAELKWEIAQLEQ

The target of test [7] is T7, 4H338-bA.
T7 chain: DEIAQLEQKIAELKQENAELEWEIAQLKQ

The target in test [8] is T8, 4H72-bA.
T8 chain: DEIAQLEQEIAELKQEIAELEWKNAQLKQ

The target of test [9] is T9, 4H967-bA.
T9 chain: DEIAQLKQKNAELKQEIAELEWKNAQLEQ

Test [10] has as its target T10, 4H3189-bA.
T10 chain: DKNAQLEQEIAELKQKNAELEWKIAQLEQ

In test [11] the target is T11, 4H568-bA.
T11 chain: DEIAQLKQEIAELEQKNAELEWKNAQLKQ

Test [12] concerns the target T12, 4H331-bA.
T12 chain: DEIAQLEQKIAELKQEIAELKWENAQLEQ

Test [13] deals with T13, 4H918-bA.
T13 chain: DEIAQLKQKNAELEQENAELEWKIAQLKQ

In test [14] the target is T14, 4H607-bA.
T14 chain: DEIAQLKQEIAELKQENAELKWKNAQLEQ

For test [15], the target named is T15, 4H3354-bA.
T15 chain: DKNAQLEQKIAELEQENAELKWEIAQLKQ

For test [16], the target named is T16, 4H797-bA.
T16 chain: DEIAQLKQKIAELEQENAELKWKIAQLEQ

For test [17], the target named is T17, 4H2667-bA.
T17 chain: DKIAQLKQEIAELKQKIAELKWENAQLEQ

Test [18] has as its target T18, 4H908-bA.
T18 chain: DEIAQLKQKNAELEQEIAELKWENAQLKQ

In test [19] the target is T19, 4H717-bA.
T19 chain: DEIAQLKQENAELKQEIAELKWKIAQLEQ

For test [20], the target named is T20, 4H953-bA.
T20 chain: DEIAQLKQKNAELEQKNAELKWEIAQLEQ

The target of test [21] is T21, 4H883-bA.
T21 chain: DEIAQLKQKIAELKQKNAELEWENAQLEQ

Test [22] addresses T22, 4H4001-bA.
T22 chain: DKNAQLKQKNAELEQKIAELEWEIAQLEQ

The target in test [23] is T23, 4H3782-bA.
T23 chain: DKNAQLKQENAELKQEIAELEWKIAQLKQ

Test [24] addresses T24, 4H754-bA.
T24 chain: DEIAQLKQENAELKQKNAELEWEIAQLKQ

For test [25], the target named is T25, 4H3112-bA.
T25 chain: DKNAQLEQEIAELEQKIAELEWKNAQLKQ

Test [26] addresses T26, 4H2618-bA.
T26 chain: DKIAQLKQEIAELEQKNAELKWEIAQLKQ

The target of test [27] is T27, 4H3427-bA.
T27 chain: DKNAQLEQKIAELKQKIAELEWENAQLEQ

For test [28], the target named is T28, 4H3855-bA.
T28 chain: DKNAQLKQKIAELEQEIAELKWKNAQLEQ

Test [29] addresses T29, 4H454-bA.
T29 chain: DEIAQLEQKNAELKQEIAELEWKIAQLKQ

Test [30] concerns the target T30, 4H687-bA.
T30 chain: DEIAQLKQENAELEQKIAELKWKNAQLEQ

The target of test [31] is T31, 4H2729-bA.
T31 chain: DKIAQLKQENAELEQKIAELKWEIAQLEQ

For test [32], the target named is T32, 4H3185-bA.
T32 chain: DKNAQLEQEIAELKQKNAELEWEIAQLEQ

With DKIAQLKQKIAELKQENAELEWENAQLEQ [P4A-bA], the interaction score in test [1] was -2.07; in test [2], -1.25; in test [3] it was -0.955; in test [4], -0.899; in test [5], -0.883; in [6], -1.23.

Take DKIAQLKQEIAELEQKNAELKWEIAQLKQ [4H2618-bA]: the interaction score in [7] was 1.02; in test [8], 0.102; in [9] it was -0.631; in [10], -2.6; in [11], -0.965; in [12], 0.866. In addition, the interaction score in test [13] was 1.61; in [14], -1.07; in [15], 1.21; in test [16], 0.0328; in test [17], 0.0194; in [18], -0.916. Moreover, the interaction score was -1.08 in [19]; -1.3 in test [20]; 0.137 in test [21]; 0.142 in [22]; -0.735 in [23]; -0.396 in test [24]. In addition, the interaction score in test [25] is -0.804; in [26] it was 0.484; in test [27] it was 0.72; in test [28] it was -0.835; in test [29], 0.854; in test [30] it was 0.769. Also, the interaction score in [31] came out at 1.35; in [32] it was 0.858.

Source of the values: PMC10397247.
